Positions count from the first letter of the chain named.
Tests used:
[1] = molecular target: T1, GST-GLI1^S116,S130 (GST-GLI1_(68-232), only S116 and S130 intact), mock treated (human, UniProt P08151-1 68-232, S70A | S86A | S102A | S146A | S201A); assay: mock treated
T1 sequence: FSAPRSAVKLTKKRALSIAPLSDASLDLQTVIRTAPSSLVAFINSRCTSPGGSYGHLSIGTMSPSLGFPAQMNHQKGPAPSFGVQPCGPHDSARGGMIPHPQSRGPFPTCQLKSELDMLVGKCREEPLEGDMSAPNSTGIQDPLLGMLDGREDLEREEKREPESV

[2] = molecular target: T2, GST-GLI1^S102,S116 (GST-GLI1_(68-232), only S102 and S116 intact), mock treated (human, UniProt P08151-1 68-232, S70A | S86A | S130A | S146A | S201A); assay: mock treated
T2 sequence: T1 sequence with A35S, S63A

[3] = molecular target: T3, GST-GLI1^S116,S130, phosphorylated by ERK2 (human, UniProt P08151-1 68-232, S70A | S86A | S102A | S146A | S201A, phosphorylated by ERK2; intact SP sites S116, S130); assay: GLI1 phosphorylated by ERK2
T3 sequence: T1 sequence

[4] = molecular target: T4, GST-GLI1^S130, phosphorylated by ERK2 (human, UniProt P08151-1 68-232, S70A | S86A | S102A | S116A | S146A | S201A, phosphorylated by ERK2; only intact SP site S130); assay: GLI1 phosphorylated by ERK2
T4 sequence: T1 sequence with S49A

[5] = molecular target: T5, GST-GLI1^S116, phosphorylated by ERK2 (human, UniProt P08151-1 68-232, S70A | S86A | S102A | S130A | S146A | S201A, phosphorylated by ERK2; only intact SP site S116); assay: GLI1 phosphorylated by ERK2
T5 sequence: T1 sequence with S63A

[6] = molecular target: phosphorylated single and double-phosphosite mutants; assay: pull-down; purified GST-GLI1_(68-232) variants (mock treated or ERK2 phosphorylated), 0 or 1.25-80 nM, on glutathione-Sepharose beads; ∼1 pmol 35S-SUFU in 200 μl; 15 min at 30°C, then 1 h at room temperature; Binding Buffer (20 mM Tris-HCl pH 7.5, 125 mM KOAc, 0.5 mM EDTA, 5 mM DTT, 0.1% Tween20, 12.5% glycerol) + 1 mg/ml BSA; bound SUFU quantified by SDS-PAGE and Phosphorimager; Kd from binding isotherms
[7] = molecular target: the three “two sites only”-intact mutants, ERK2-phosphorylated; assay: as above
[8] = molecular target: T6, GST-GLI1^S116, phosphorylated by ERK2 (human, UniProt P08151-1 68-232, S70A | S86A | S102A | S130A | S146A | S201A, phosphorylated by ERK2; only intact SP site S116); assay: as above; details: one partner purified
T6 construct: only the SP site S116 intact; also called ERK2-treated GLI1^S116; source: bacteria, purified (glutathione-Sepharose); then phosphorylated with purified active ERK2
T6 sequence (looked up): T1 sequence with S63A

[9] = molecular target: T7, GST-GLI1^S130, phosphorylated by ERK2 (human, UniProt P08151-1 68-232, S70A | S86A | S102A | S116A | S146A | S201A, phosphorylated by ERK2; only intact SP site S130); assay: as above; details: one partner purified
T7 construct: only the SP site S130 intact; also called ERK2-treated GLI1^S130; source: bacteria, purified (glutathione-Sepharose); then phosphorylated with purified active ERK2
T7 sequence (looked up): T1 sequence with S49A

[10] = molecular target: T8, GST-GLI1_(68-232), wild type, phosphorylated by ERK2 (human, UniProt P08151-1 68-232, phosphorylated by ERK2 to ∼3 mol phosphate per mole; most efficient sites Ser116 and Ser130, followed by Ser102 and Ser201); assay: as above; details: one partner purified
T8 construct: vector pGEX-LB; also called ERK2-phosphorylated GLI1; WT + ERK2; source: bacteria, purified (glutathione-Sepharose); then phosphorylated with purified active ERK2 (2 h, 30°C)
T8 sequence (looked up): T1 sequence with A3S, A19S, A35S, A79S, A134S

B1: full-length human SUFU protein, 35S-radiolabeled (natural protein, UniProt Q9UMX1-1 1-484, looked up)
chain: MAELRPSGAPGPTAPPAPGPTAPPAFASLFPPGLHAIYGECRRLYPDQPNPLQVTAIVKYWLGGPDPLDYVSMYRNVGSPSANIPEHWHYISFGLSDLYGDNRVHEFTGTDGPSGFGFELTFRLKRETGESAPPTWPAELMQGLARYVFQSENTFCSGDHVSWHSPLDNSESRIQHMLLTEDPQMQPVQTPFGVVTFLQIVGVCTEELHSAQQWNGQGILELLRTVPIAGGPWLITDMRRGETIFEIDPHLQERVDKGIETDGSNLSGVSAKCAWDDLSRPPEDDEDSRSICIGTQPRRLSGKDTEQIRETLRRGLEINSKPVLPPINPQRQNGLAHDRAPSRKDSLESDSSTAIIPHELIRTRQLESVHLKFNQESGALIPLCLRGRLLHGRHFTYKSITGDMAITFVSTGVEGAFATEEHPYAAHGPWLQILLTEEFVEKMLEDLEDLTSPEEFKLPKEYSWPEKKLKVSILPDVVFDSPLH
modifications: [35S]-methionine label
notes: human SUFU, full length, residues 1-484, from plasmid pGEM4Z-SUFU; also called 35S-SUFU; radiolabeled SUFU; source: in vitro transcription and translation (SP6, Promega), partially purified by ammonium sulfate precipitation
Binder B1 has a Kd [1] of 11 nM, a Kd [2] of 6 nM and a Kd [3] of 53 nM. It also gave a Kd [4] of 16 nM, a Kd [5] of 36 nM and a Kd [6] of 53 nM. The fold increase of Kd after ERK2-mediated phosphorylation [7] was 4.8 to 8.3 fold, the “fold increase of Kd upon phosphorylation” value [8] was 2.6 fold and the “fold reduction in affinity after ERK2 treatment” value [9] was 1.3 fold. For the same binder, the “fold increase of Kd against unphosphorylated GLI1” value [10] was ~30 fold and the “fold weakening of Kd against unphosphorylated GLI1” value [10] was > 30 fold.
